Test results from article PMC13454268 (Nature Communications, 2026).
Each block holds one molecule with its values, some of them ahead of it.

Experiments:
R. rubrum rubisco = target: T1, R. rubrum rubisco (Rhodospirillum rubrum, UniProt P04718); assay: […]-CABP binding, liquid scintillation (active-site count); settings: activated enzyme; labelled compound
T1 construct: gene cbbM; form II large subunit, L2 homodimer
T1 sequence (P04718 1-466): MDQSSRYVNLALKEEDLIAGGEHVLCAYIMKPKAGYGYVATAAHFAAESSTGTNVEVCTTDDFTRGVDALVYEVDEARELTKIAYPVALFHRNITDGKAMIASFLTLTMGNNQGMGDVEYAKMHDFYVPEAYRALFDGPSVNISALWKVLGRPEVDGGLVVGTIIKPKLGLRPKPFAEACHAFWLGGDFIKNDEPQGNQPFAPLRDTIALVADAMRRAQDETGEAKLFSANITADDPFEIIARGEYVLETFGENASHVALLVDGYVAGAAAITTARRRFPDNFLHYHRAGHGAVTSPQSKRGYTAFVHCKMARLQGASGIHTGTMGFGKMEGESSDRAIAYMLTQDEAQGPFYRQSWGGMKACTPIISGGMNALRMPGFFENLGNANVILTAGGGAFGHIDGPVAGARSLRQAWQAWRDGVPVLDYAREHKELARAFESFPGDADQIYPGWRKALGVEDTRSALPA

[1] = target: Ammonifex degensii KC4 form Iβ rubisco (Ammonifex degensii KC4); assay: SEC-SAXS; 100 µl samples, 1-45 mg/ml rubisco incubated with or without CABP; Shodex KW804 column; 20 mM HEPES-OH pH 8.0, 300 mM NaCl, 10 mM MgCl2, 10 mM NaHCO3; 20 °C; molecular weight by volume of correlation
[2] = target: Fervidicoccus fontis form Iβ rubisco (Fervidicoccus fontis); assay: as above
[3] = target: Prometheoarchaeum syntrophicum rubisco (Prometheoarchaeum syntrophicum); assay: as above
[4] = target: Rhodopseudomonas faecalis form II rubisco (Rhodopseudomonas faecalis); assay: as above
[5] = target: Thermodesulfobium acidiphilum form Iβ rubisco (Thermodesulfobium acidiphilum); assay: as above

Molecule: O=C(O)[C@@](O)(COP(=O)(O)O)[C@H](O)[C@H](O)COP(=O)(O)O [CABP]
14C-CABP binding, liquid scintillation (active-site count) (R. rubrum rubisco): An aliquot of activated R. rubrum was used for determination of rubisco active sites

stoichiometry N [1]: 2
Molecule: Ammonifex degensii KC4 form Iβ rubisco (enzyme)

stoichiometry N [2]: 2
Molecule: Fervidicoccus fontis form Iβ rubisco (enzyme)

stoichiometry N [3]: 2
Molecule: Prometheoarchaeum syntrophicum rubisco (enzyme)

stoichiometry N [4]: 6
Molecule: Rhodopseudomonas faecalis form II rubisco (enzyme)

stoichiometry N [5]: 2
Molecule: Thermodesulfobium acidiphilum form Iβ rubisco (enzyme)
